The record followed here is PMC4609913 (2015).

Test [1] has as its target T1, recombinant ADAM10 (A Disintegrin and Metalloproteinase 10) (UniProt O14672 20-748).
T1 chain: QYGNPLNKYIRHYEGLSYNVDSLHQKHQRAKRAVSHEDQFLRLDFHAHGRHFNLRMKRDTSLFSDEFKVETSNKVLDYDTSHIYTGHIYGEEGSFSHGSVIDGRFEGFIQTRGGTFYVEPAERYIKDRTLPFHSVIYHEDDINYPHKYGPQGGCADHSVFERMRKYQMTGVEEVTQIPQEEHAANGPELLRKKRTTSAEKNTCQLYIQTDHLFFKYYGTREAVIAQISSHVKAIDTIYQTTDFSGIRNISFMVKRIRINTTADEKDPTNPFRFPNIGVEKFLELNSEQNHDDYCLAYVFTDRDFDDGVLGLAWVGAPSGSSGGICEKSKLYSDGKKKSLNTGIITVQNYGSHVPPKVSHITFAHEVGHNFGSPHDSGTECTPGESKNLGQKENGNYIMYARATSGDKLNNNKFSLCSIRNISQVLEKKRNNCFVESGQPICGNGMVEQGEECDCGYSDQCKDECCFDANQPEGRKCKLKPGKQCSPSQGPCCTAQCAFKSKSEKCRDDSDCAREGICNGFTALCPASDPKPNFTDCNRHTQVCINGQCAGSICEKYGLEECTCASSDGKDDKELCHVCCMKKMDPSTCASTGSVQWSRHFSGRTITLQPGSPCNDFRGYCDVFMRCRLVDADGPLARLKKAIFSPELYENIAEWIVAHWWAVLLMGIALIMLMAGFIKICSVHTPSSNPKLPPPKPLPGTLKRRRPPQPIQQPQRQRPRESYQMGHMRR
Put plainly: FRET.

The target of test [2] is recombinant ADAM17 (A Disintegrin and Metalloproteinase 17) (UniProt P78536 215-671). Briefly: FRET.
recombinant ADAM17 (A Disintegrin and Metalloproteinase 17), sequence (P78536 215-671): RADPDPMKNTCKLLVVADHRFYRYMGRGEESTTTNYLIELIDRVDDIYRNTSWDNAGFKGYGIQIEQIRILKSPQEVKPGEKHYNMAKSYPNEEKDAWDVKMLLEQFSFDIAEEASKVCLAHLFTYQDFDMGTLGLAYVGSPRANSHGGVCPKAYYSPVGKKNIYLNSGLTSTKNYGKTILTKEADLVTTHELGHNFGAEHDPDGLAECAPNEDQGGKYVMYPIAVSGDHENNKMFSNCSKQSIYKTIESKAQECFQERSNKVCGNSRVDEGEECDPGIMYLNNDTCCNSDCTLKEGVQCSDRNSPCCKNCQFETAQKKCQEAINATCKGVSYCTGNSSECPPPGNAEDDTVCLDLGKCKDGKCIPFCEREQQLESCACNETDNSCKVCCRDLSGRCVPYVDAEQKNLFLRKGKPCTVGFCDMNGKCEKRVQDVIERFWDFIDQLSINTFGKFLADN

B1: recombinant His-tagged human ADAM12 prodomain (amino acids 29-206) (domain or fragment)
chain: RGVSLWNQGRADEVVSASVGSGDLWIPVKSFDSKNHPEVLNIRLQRESKELIINLERNEGLIASSFTETHYLQDGTDVSLARNYTVILGHCYYHGHVRGYSDSAVSLSTCSGLRGLIVFENESYVLEPMKSATNRYKLFPAKKLKSVRGSCGSHHNTPNLAAKNVFPPPSQTWARRHK
In general, Ki refers to the dissociation constant of the complex between target and ligand, obtained from inhibition or displacement. For B1, the Ki in test [1] and in test [2] was > 14 µM in each case.
